Several values for one entry are separate records, joined by “and”; a condition that tells them apart may be missing. Equal values may be shown once.
Key:
FcgRIIb (human) [1] = target: FcgRIIb (human) (UniProt P31994); test: flow cytometry (FACSCalibur), CHO-FcgRII-b-1 cells, pH 7.4, detection reagent alone
FcRn = FcRn (UniProt P55899); test: flow cytometry (FACSCalibur), FcRnGPI-CHO cells, pH 6.4, detection reagent alone
FcgRIIa (human) = FcgRIIa (human) (UniProt P12318); test: flow cytometry (FACSCalibur), K562 cells, pH 7.4, detection reagent alone
FcgRI (human) = FcgRI (human) (UniProt P12314); test: flow cytometry (FACSCalibur), THP-1 cells, pH 7.4, 100 ug/ml
FcgRIIb (human) [2] = target: FcgRIIb (human) (UniProt P31994); test: flow cytometry (FACSCalibur), CHO-FcgRII-b-1 cells, pH 7.4, 100 ug/ml

Sequence of FcgRIIa (human) (P12318 34-317): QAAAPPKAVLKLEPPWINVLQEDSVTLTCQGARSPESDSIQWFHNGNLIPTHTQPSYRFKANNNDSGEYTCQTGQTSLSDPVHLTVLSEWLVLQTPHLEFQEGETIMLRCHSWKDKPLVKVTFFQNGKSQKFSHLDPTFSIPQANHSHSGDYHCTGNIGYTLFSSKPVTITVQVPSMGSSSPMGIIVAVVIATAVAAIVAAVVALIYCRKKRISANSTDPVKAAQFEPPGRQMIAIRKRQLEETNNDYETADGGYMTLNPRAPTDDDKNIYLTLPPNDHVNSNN

Row | Substance | Fc Receptor Binding Geometric Mean (FcgRIIb (human) [1]) | Fc Receptor Binding Geometric Mean (FcRn) | Fc Receptor Binding Geometric Mean (FcgRIIa (human)) | Fc Receptor Binding Geometric Mean (FcgRI (human)) | Fc Receptor Binding Geometric Mean (FcgRIIb (human) [2])
1 | R-PE conjugated anti-human IgG F(Ab')2 (Jackson ImmunoResearch, Cat.#109-116-170) | 3 | 6 and 5 | 3 | – | –
2 | EGFR (Erbitux ®, Imclone) (antibody) | – | – | – | 101 and 67 | 3
